Test results published in patent publication US20200002421A1 (AbbVie / Abbott, published 2020).
Residue numbers refer to the chain shown, from its start.

B1: huAb3v2.9 (antibody, V domains shown)
VH: EVQLVQSGAEVKKPGSSVKVSCKASGYTFSSYWMHWVRQAPGQGLEWIGLIHPISGSTNYNEMFKNRATLTVDRSTSTAYMELSSLRSEDTAVYYCAGGGRLYFDYWGQGTTVTVSS
VL: DIVMTQSPLSLPVTPGEPASISCRSSQSLVHSNQDTYLRWYLQKPGQSPQLLIYKVSNRFSGVPDRFSGSGSGTDFTLKISRVEAEDVGVYYCSQSTHVPYTFGGGTKVEIK
B2: huAb3v2.6 (antibody, human IgG1, kappa, L234A L235A, V domains shown)
VH: B1 VH with I54E
VL: DIVMTQSPLSLPVTPGEPASISCRSSQSLVHSNQDTYLRWYLQKPGQSPQLLIYKVSNRFSGVPDRFSGSGSGTDFTLKISRVEAEDVGVYYCSQSTHVPYTFGGGTKVEIKR
notes: Ig gamma-1 mutant / kappa
B3: huAb3v2.8 (antibody, V domains shown)
VH: B1 VH
VL: B1 VL with Q34R
B4: huAb13v1 (antibody, human IgG1, kappa, L234A L235A, V domains shown)
VH: EVQLQESGPGLVKPSETLSLTCAVTGYSITSGYSWHWIRQFPGNGLEWMGYIHSSGSTNYNPSLKSRISISRDTSKNQFFLKLSSVTAADTAVYYCAGYDDYFEYWGQGTTVTVSS
VL: DIQMTQSPSSLSASVGDRVTITCKASQNVGFNVAWYQQKPGKSPKALIYSASYRYSGVPSRFSGSGSGTDFTLTISSLQPEDFAEYFCQQYNWYPFTFGQGTKLEIKR
notes: Ig gamma-1 mutant / kappa
B5: huAb13v5 (antibody, V domains shown)
VH: B4 VH
VL: DIQMTQSPSSLSASVGDRVTITCKASQNVGFNVAWYQQKPGKAPKLLIYSASYRYSGVPSRFSGSGSGTDFTLTISSLQPEDFATYYCQQYNWYPFTFGQGTKLEIK
B6: huAb13v6 (antibody, V domains shown)
VH: B4 VH
VL: B5 VL with Y87F
B7: chAb13 (antibody, IgG1, V domains shown)
VH: DVQLQESGPDLVKPSQSLSLTCTVTGYSITSGYSWHWIRQFPGNKLEWMGYIHSSGSTNYNPSLKSRISINRDTSKNQFFLQLNSVTTEDTATYYCAGYDDYFEYWGQGTTLTVSS
VL: DIVMTQSQKFMSTSVGDRVSVTCKASQNVGFNVAWYQQKPGQSPKALIYSASYRYSGVPDRFTGSGSGTDFTLTISNVQSEDLAEYFCQQYNSYPFTFGSGTKLEIK
notes: chimeric, huIgG1/k

Key:
[1] = target: T1, hB7-H3 (ELISA antigen of Tables 17 and 20) (human, UniProt Q5ZPR3 29-466, limits assumed); assay: ELISA
T1 sequence: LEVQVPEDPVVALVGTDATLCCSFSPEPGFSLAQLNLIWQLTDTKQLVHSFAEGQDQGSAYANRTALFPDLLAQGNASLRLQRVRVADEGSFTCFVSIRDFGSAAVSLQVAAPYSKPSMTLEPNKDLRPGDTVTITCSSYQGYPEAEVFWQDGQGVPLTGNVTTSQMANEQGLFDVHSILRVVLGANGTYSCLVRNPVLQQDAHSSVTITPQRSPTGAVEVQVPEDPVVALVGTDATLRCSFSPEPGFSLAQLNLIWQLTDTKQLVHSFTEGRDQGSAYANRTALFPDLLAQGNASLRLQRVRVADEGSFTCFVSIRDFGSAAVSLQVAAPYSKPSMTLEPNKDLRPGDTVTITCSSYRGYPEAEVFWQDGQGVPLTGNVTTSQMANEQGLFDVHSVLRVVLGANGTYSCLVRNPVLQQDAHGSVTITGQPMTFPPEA

[2] = target: T2, Human full length B7-H3 (human, UniProt Q5ZPR3 29-534); assay: FACS, 3T12 transfectants
T2 construct: on 3T12 transfectants, NCI-H1650 and other cells; also called huB7-H3; hu B7-H3
T2 sequence: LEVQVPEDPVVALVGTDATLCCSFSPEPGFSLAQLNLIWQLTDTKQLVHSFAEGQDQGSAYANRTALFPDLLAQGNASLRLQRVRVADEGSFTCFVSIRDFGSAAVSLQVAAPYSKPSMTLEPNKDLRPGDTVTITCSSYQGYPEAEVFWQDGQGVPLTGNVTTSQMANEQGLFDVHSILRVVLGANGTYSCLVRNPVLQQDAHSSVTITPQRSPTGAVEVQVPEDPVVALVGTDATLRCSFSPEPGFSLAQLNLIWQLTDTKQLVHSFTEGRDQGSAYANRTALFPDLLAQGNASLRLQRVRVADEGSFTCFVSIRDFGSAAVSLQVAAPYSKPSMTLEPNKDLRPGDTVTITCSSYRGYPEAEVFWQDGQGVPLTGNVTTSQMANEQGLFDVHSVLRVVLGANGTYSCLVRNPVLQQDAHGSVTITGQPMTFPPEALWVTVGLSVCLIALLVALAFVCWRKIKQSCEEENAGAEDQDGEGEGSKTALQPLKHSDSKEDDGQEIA

[3] = target: T3, Cynomolgous B7-H3 on cells (cynomolgus); assay: FACS, 3T12 transfectants
T3 construct: whole, on cells; also called cyno B7-H3; cyB7-H3

[4] = target: T3, Cynomolgous B7-H3 on cells; assay: FACS
Experimental: (§1) Cells were harvested from flasks when approximately 80% confluent using Gibco® Cell Dissociation Buffer. Cells were washed once in PBS/1% FBS (FACS buffer) then resuspended at 2.5×10⁶ cells/mL in FACS buffer. 100 μL of cells/well were added to a round bottom 96-well plate. 10 μL of a 10× concentration of mAb/ADC (final concentrations are indicated the figures). Wells were washed twice with FACS buffer and resuspended in 50 μL of secondary Ab (AlexaFluor 488) diluted in FACS buffer. The plate was incubated at 4° C. for one hour and washed twice with FACS buffer. Cells were resuspended in 100 μL of PBS/1% formaldehyde and analyzed on a Becton Dickinson LSRII flow cytometer. Data was analyzed using WinList flow cytometry analysis software.
(§2) Nine huAb13 variants described in Examples 17 and 18 were generated and tested for binding to B7-H3 by FACS (according to methods described in Example 6).

[5] = target: T2, Human full length B7-H3; assay: FACS
Experimental: as §1, §2

[6] = target: T1, hB7-H3 (ELISA antigen of Tables 17 and …); assay: ELISA; remark: listed apart in the source
[7] = target: T1, hB7-H3 (ELISA antigen of Tables 17 and …); assay: ELISA; ELISA, human B7-H3; no DAR given, so unconjugated

| Binder | EC50 [1] [nM] | EC50 [2] [nM] | EC50 [3] [nM] | EC50 [4] [nM] | EC50 [5] [nM] | EC50 [6] [nM] | EC50 [7] [nM] |
| --- | --- | --- | --- | --- | --- | --- | --- |
| B1 | 0.16 | 6.16 | 4.64 | – | – | – | – |
| B2 | 0.09 | 5.64 | 3.31 | – | – | – | – |
| B3 | 0.14 | 3.94 | 3.01 | – | – | – | – |
| B4 | – | – | – | 10 | – | – | – |
| B5 | – | – | – | 10.6 | 5.21 | 0.19 | – |
| B6 | – | – | – | 12.9 | 5.83 | 0.14 | – |
| B7 | – | – | – | 18.4 | 6.27 | – | 0.26 |
